Values joined by “and” are separate entries in the source; they are usually repeats but may differ in a detail not shown here. Equal values may be shown once. “Also recorded” adds a separate entry of the source.
What was measured:
human washed platelets = assay: In vitro platelet aggregation assay; format: cell-based
Description: Blood from healthy human donors, who had not taken anti-platelet agents within the 15 days prior to collection, was collected in citrated tubes and centrifuged for 13 min at 200 g. The platelet-rich plasma was collected and centrifuged for 13 min at 900 g in Tyrode buffer (138 mM NaCl, 2.9 mM KCl, 12 mM NaHCO3, 5.5 mM glucose, 1.8 mM CaCl2 and 0.4 mM MgCl2, pH 7.4) containing 0.2% BSA, apyrase 0.02 U/mL and PGI2 500 nM. Washed platelets were resuspended in the Tyrode/BSA 0.2%/apyrase/PGI2 solution and centrifuged at 900 g for 13 min. Platelets were resuspended in a Tyrode/BSA 0.2% solution at a concentration of 3.10^8 platelets/mL. Platelets were kept at 37° C. for 30 min in a solution containing […]. Next, platelets were incubated at 37° C. under agitation for 5 to 10 minutes in an aggregometer APACT 4004 with ADP (adenosine diphosphate), TRAP (Thrombin Receptor-Activating Peptide) and/or Ir-CPI.
The effect of Ir-CPI on platelet aggregation was assessed in vitro by using isolated human washed platelets (n=1).

[1] = Tail bleeding time assessment; format: in vivo, mice (C57BL/6JRj)
Description: Tail bleeding time assessment under NaCl or Ir-CPI treatment (Low or High dose) was performed as previously described (Mezouar et al., 2015) on anesthetized wild-type (i.e. cancer-free) or cancer-bearing mice. Briefly, a 1- to 3-mm portion of the distal tail was removed from mice; the tail was immersed in isotonic saline (37° C.), and the time to complete cessation of blood flow recorded. The bleeding time was monitored for a maximum of 10 min.

[2] = test system: thrombin generation induced by ellagic acid (intrinsic pathway activator); settings: cited from earlier work
Factor XIa = Factor XIa (Homo sapiens, UniProt P03951); settings: cited from earlier work
thrombin = thrombin (Homo sapiens, UniProt P00734); settings: cited from earlier work
Factor Xa = Factor Xa (Homo sapiens, UniProt P00742); settings: cited from earlier work
Factor Xa, sequence (P00742 41-179 limits assumed): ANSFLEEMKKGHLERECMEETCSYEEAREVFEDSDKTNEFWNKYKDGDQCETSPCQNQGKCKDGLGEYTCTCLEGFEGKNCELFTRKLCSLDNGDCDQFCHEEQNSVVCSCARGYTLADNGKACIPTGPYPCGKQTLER
Factor Xa, sequence (P00742 235-488 limits assumed): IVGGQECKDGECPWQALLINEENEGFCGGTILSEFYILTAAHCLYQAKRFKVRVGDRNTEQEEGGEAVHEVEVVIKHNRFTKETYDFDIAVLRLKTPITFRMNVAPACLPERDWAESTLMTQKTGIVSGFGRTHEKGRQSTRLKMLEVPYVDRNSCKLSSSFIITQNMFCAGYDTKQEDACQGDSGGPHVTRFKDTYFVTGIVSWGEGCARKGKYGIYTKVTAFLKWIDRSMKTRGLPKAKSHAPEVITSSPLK

FXIa = FXIa (Homo sapiens, UniProt P03951); settings: cited from earlier work
FXI = FXI (Homo sapiens, UniProt P03951); settings: cited from earlier work
FXIIa = biological target: T1, FXIIa (Homo sapiens, UniProt P00748); settings: aPTT-based test, FXII deficient plasma; cited from earlier work
T1 construct: The resulting α-FXIIa has a heavy chain of 50 kDa, connected to a light chain of 28 kDa
T1 sequence (P00748 20-372 limits assumed): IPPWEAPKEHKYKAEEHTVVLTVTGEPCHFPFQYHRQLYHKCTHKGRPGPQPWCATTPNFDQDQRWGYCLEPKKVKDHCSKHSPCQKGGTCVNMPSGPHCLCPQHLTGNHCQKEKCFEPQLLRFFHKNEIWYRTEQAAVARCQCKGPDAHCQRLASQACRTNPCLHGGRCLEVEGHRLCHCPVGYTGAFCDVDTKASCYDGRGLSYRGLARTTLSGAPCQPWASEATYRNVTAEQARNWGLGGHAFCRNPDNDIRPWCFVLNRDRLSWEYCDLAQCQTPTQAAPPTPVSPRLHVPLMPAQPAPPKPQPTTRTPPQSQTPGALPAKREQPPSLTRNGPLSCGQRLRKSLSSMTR
T1 sequence (P00748 373-615 limits assumed): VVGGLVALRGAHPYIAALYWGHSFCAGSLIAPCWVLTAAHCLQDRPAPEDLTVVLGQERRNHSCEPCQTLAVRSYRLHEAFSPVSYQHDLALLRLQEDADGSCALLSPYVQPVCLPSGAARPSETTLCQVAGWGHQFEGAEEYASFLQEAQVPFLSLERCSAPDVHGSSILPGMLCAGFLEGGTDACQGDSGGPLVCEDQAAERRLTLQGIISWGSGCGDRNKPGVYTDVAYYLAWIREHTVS

[3] = Ir-CPI 500 μg/100 μL injected alone and then TRAP 20 μM at about 230 sec
[4] = TRAP 20 μM + Ir-CPI 500 μg/100 μL injected together
[5] = agent alone (TRAP 20 μM, ADP 20 μM or Ir-CPI 500 μg/100 μL), n=1

B1: Ir-CPI: Ixodes ricinus salivary gland polypeptide, contact phase inhibitor, MW=7660 Da; sequence SEQ ID NO: 1 or SEQ ID NO: 2 (protein)
chain: ANHKGRGRPAKCKLPPDDGPCRARIPSYYFDRKTKTCKEFMYGGCEGNENNFENITTCQEECRAKKV
With B1 the “Aggregation Latency” value (human washed platelets; [3]) was 231.2 s, the “Aggregation Max” value (human washed platelets; [3]) was 73.5% and the “Aggregation Slope” value (human washed platelets; [3]) was 31.1 %/min. For the same molecule, the “activation of platelet aggregation” value (human washed platelets; Ir-CPI alone added to washed platelets) was “did not activate platelet aggregation”, the “effect on TRAP-induced platelet aggregation” value (human washed platelets; Ir-CPI and TRAP, compared to TRAP alone) was “did not significantly modify platelet aggregation; also recorded: does not inhibit platelet aggregation” and the “Aggregation Latency” value (human washed platelets; [4]) was 98.6 s. The “Aggregation Max” value (human washed platelets; [4]) was 71.7% and 71.8%, the “Aggregation Slope” value (human washed platelets; [4]) was 35.1 %/min and the “Aggregation Latency” value (human washed platelets; [5]) was 70.0 s. The “Aggregation Max” value (human washed platelets; [5]) was 4.1%, the “Aggregation Slope” value (human washed platelets; [5]) was 16.2 %/min and the “tail bleeding time compared to NaCl-treated mice” value ([1]; High dose (20.5 mg/kg + 3.7 mg/kg/h), cancer-bearing mice) was “No significant effect”. For the same molecule, the “tail bleeding time compared to NaCl-treated mice” value ([1]; High dose (20.5 mg/kg + 3.7 mg/kg/h), cancer-free mice) was “No significant effect”, the “tail bleeding time compared to NaCl-treated mice” value ([1]; Low dose (10.3 mg/kg + 1.9 mg/kg/h), cancer-bearing mice) was “No significant effect” and the “tail bleeding time compared to NaCl-treated mice” value ([1]; Low dose (10.3 mg/kg + 1.9 mg/kg/h), cancer-free mice) was “No significant effect”. The thrombin generation [2] was “strong dose-dependent reduction”, the “activation of Factor XII by Factor XIa” value (Factor XIa) was “inhibit activation” and the activity on thrombin (thrombin) was “totally inactive”. The “activity on Factor Xa” value (Factor Xa) was “totally inactive”, the “binding to FXIa” value (FXIa) was “binds” and the “binding to FXI zymogen” value (FXI) was “but not to their zymogen forms; also recorded: unable to bind”. For the same molecule, the FXIIa clotting activity (FXIIa) was “inhibits”.

— patent publication US20250295734A1, “ANTICOAGULANT PROTEINS AND THEIR USE FOR TREATING DISEASES ASSOCIATED WITH THE ACTIVATION OF NEUTROPHILS” (BIOXODES, priority 2018, published 2025)
